The results in this text go back to patent publication US20200239537A1 (GOVERNORS OF THE UNIVERSITY OF ALBERTA, published 2020).

*1 amine or outer side, *2 acyl side, *3 side chain or, on linkers, in order; H or OH if unused. Where no end group is shown, it is not given here. [ ]: non-standard residue; d: D form. The star is where a group is joined. azaArg = aza-arginine, alpha-carbon replaced by nitrogen, N=C(N)NCCCN(N[*:1])C(=O)[*:2]; Phe(4-Br) = N[C@@H](Cc1ccc(Br)cc1)C(=O)O; azaLeu = CC(C)CN(N[*:1])C(=O)[*:2]; Palmitoyl = CCCCCCCCCCCCCCCC(=O)*; αMeR = C[C@](N)(CCCNC(=N)N)C(=O)O; NMeL = CN[C@@H](CC(C)C)C(=O)O; αMeL = CC(C)C[C@](C)(N)C(=O)O; Nle = CCCC[C@H](N)C(=O)O; Aib = CC(C)(N)C(=O)O

Test [1] deals with T1, wild-type rat apelin receptor tagged at its C-terminus with EGFP (rat, UniProt Q9JHG3 1-377).
T1 construct: whole, on cells; Used as crude membrane preparations from CHO cells stably expressing the receptor; also called wild-type rat apelin receptor-EGFP; not shown: EGFP tag at the C-terminus
T1 sequence (looked up): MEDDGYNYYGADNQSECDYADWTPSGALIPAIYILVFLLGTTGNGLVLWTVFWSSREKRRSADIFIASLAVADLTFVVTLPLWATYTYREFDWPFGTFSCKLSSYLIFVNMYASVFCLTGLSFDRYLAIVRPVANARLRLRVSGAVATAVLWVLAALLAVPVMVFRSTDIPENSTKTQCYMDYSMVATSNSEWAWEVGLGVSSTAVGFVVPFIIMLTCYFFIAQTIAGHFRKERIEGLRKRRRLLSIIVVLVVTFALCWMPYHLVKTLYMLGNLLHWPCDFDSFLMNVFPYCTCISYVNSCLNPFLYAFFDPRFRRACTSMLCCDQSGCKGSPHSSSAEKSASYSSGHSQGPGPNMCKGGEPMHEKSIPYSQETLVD
The experiment in a line: displacement of 0.2 nM [125I]-pyr-1-apelin-13; membranes of CHO cells expressing rat apelin receptor-EGFP. The protocol:
This experiment evaluated the ability of peptides of the present embodiments to bind to the wild-type rat apelin receptor, in order to examine the impact of synthetic modification within the critical RPRL motif of the apelin peptides.
The reaction was stopped by adding 4 mL of cold binding buffer, filtered on Whatman GF/C filters and washed with 5 mL of cold binding buffer. Radioactivity was then counted using a Wizard 1470 Wallac gamma counter (Perkin Elmer, Turku, Finland). Binding experiment data were analyzed with GraphPad Prism.

In test [2] the target is T2, recombinant human APJ receptor (Chem-5-APJ cells) (human, UniProt P35414 1-380).
T2 sequence (looked up): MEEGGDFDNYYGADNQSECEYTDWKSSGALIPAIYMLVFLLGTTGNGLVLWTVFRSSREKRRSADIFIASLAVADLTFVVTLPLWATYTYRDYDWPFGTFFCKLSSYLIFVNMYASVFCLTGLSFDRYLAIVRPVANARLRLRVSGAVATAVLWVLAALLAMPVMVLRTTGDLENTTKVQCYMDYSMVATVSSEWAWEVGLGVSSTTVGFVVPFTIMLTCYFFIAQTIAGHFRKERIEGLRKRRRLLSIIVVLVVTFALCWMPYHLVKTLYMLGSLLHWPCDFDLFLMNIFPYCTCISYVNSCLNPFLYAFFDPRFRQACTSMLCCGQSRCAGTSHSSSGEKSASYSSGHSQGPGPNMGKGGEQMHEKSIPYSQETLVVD
The experiment in a line: cell-based or functional assay.

The target of test [3] is T2, recombinant human APJ receptor …. The test can be described thus: cell-based or functional assay. The source holds these as a separate data set.

Consider KFRRQRPR[dL]SHKGP[Nle][Aib][Phe(4-Br)] [D-Leu9-apelin-17 A2 (9)], for which, in test [1], the affinity, expressed as Ki, was 0.14 nM and the “times less potent than native 2” value is ~3 fold.
As to Palmitoyl-KFRRQRPR[NMeL]SHKGP[Nle][Aib][Phe(4-Br)] [PALM-NMe17A2 (58)], the “EC50 (nM), Ca2+ mobilization assay” value in test [2] came to 11.3 nM.
With KFRRQRPR[NMeL]SHKGP[Nle][Aib][Phe(4-Br)] (also called Apelin-NMe17A2; NMeLeu-17A2) [N-MeLeu9-apelin-17 A2 (11)], in test [1], the affinity, expressed as Ki, was 0.45 nM and the “times less potent than native 2” value was ~3 fold.
For KFRRQRP[azaArg]LSHKGP[Nle][Aib][Phe(4-Br)] [azaArg8-apelin-17 A2 (17)] the same measures were 0.14 nM and ~3 fold.

B1: PEG-NMe17A2 (59) (peptide)
peptide: KFRRQRPR[NMeL]SHKGP[Nle][Aib][Phe(4-Br)]
modifications: not fully specified (N-terminus); numbers in words are those of the source; also: N-terminal PEG from Fmoc-(PEG)6 propionic acid, Fmoc removal not given here
For B1, the “EC50 (nM), Ca2+ mobilization assay” value in test [2] was determined as 2.5 nM.
Consider KFRRQRPR[αMeL]SHKGP[Nle][Aib][Phe(4-Br)] [α-MeLeu9-apelin-17 A2 (15)], for which, in test [1], the Ki stood at 0.18 nM and the “times less potent than native 2” value is ~3 fold.
Take Palmitoyl-KFRRQRPRLSHKGP[Nle][Aib][Phe(4-Br)] [PALM-17A2 (56)]: in test [2], the “EC50 (nM), Ca2+ mobilization assay” value was 2.6 nM.

B2: apelin-17 (2) (peptide)
peptide: KFRRQRPRLSHKGPMPF
notes: Native isoform; apelin residues 61-77; also called native apelin-17; native isoform 2
For the molecule B2, in test [1], the affinity, expressed as Ki, was 0.053 nM.

B3: pyr-1-apelin-13 A2 (4) (peptide)
peptide: XRPRLSHKGPXXX
modifications: pGlu at 1; Nle at 11; Aib at 12; paraBrPhe at 13
notes: Synthetic ACE2-resistant analogue; also called parent peptide 4; none (A2)
B3: in test [1], the Ki worked out at 2 nM and the “factor of weaker affinity compared to 1” value was found to be 6 fold.
As to KFRRQRPR[azaLeu]SHKGP[Nle][Aib][Phe(4-Br)] [azaLeu9 apelin-17 A2 peptide (19)], in test [1], the Ki turned out to be 0.15 nM and the “times less potent than native 2” value is ~3 fold.
Consider KFRRQRPRLSHKGP[Nle][Aib][Phe(4-Br)] (not fully specified (N-terminus); also: Fmoc removal from PEG not given here) [PEG-17A2 (57)], for which the “EC50 (nM), Ca2+ mobilization assay” value in test [2] is 6.3 nM.
RQRPRLSHKGP[Nle][Aib][Phe(4-Br)] [Apelin-14A2 (54)]: the “EC50 of Ca2+ mobilization, fold against the 17-mers” value in test [3] is ~200 fold. Further, the “EC50 (nM), Ca2+ mobilization assay” value in test [2] came to 568 nM.
As to KFRRQRP[αMeR]LSHKGP[Nle][Aib][Phe(4-Br)] (also called α-MeArc8-apelin-17 A2) [α-MeArg8-apelin-17 A2 (13)], in test [1], the Ki was determined as 0.13 nM and the “times less potent than native 2” value was ~3 fold.

B4: apelin-17 A2 (5) (peptide)
peptide: KFRRQRPRLSHKGP[Nle][Aib][Phe(4-Br)]
notes: Synthetic ACE2-resistant analogue; also called parent peptide 5
On to B4, for which the “EC50 (nM), Ca2+ mobilization assay” value in test [2] amounted to 4 nM. The molecule also yielded a Ki in test [1] of 0.19 nM.
On to RQRPR[NMeL]SHKGP[Nle][Aib][Phe(4-Br)] [Apelin-NMe14A2 (55)], for which the “EC50 of Ca2+ mobilization, fold against the 17-mers” value in test [3] was ~200 fold. For the same molecule, in test [2], the “EC50 (nM), Ca2+ mobilization assay” value was 176 nM.
